In the DeepSol protein solubility set:

Test: soluble on expression in E. coli; label from the status in PepcDB or PDB records

Row | Sequence | soluble on expression in E. coli
1 | MSNDVYIIGAGETKFGELWDKSLRDLAVEAGLEAIKDANIYSKDLQMLYASNSLAGTINEQSNIAALAADFSGIAENHVPAVRVEASTASGGAAVREAYLAIKSGEYDVVMVGGVEKMTDIYGTEIIDVQSSILDREWESFNGATPAAMAAIAARRYMHDFNVEREAISMVAVNDHANASLNPDAQYRNKITVDQVLNSDPVAEPLNVFDCSPITDGASAIILASEGFVKKNRIDGVRIL | not soluble
2 | GISPNVLNNMKSYMKHSNIRNIIINIMAHELSVINNHIKYINELFYKLDTNHNGSLSHREIYTVLASVGIKKWDINRILQALDINDRGNITYTEFMAGCYRWKNIESTFLKAAFNKIDKDEDGYISKSDIVSLVHDKVLDNNDIDNFFLSVHSIKKGIPREHIINKISFQEFKDYMLSTF | soluble
3 | MSLAESQLSKLDVNLQSLNPYTFSKTRCIVNLHISDDTKNRDPSTTNGSYSNSQLLSNGEHVCYHFSQDYCVLSIYPVTDAITGKTVVVHLPHETFNDHHTFTMAEEDGCIVMDLILKTGLFLTLRFSLEYLFNRNADINSSWYSLLKPYDFTVRLPDYLYKVNSALSIVYLNDGGLLGLQKTQTSGSDEYDLHPVLFNDNSYFQSFTRFFSHNDSGRENVVSSVSYGDYHLLTLTENCKLRIWDLRTNSVTAQLNLITDPQDKHRKYESIGPYLALLDSVLVVFLPFGNGAFRTFQLSVNNSGGLVLTPRGELIRTNLSTASIWSLVDTKLTKPFELNIETSYLQMVVLWKSNTSIKLQILNFETEALDKHSWVEASNKSLPDILDNDILGDNFEQSLLDLKAHYTPAIYEEAQRILSANGIIFVPSQQNNDEYLSNLESILKDLKKHHDEPSSLTLYNGEVVMVNTLYLYNHFVYKINSKLESFYYNLTSEGHHHHHH | soluble
4 | TLDPNAQQTAYEQLSQSGYEGAVVALRPSTGEVLAMASSPSYDPNQIVDPATAEDAWAEYTSTEGAPLLNHATQESLPPGSIFKIITTAAALENGYSADSTVTAEAAVTLPGTNTTLTNYGGQTCAGGGTTTLLTAFQLSCNTAFVETGIDVGADALRASAEDFGVGQTYSLGLDNVPGGLGEIPDDAALGQSSIGQRDVQMNVLQAAVMAGTVSNGGVRMEPYLVSRVTGQDLSELSTHKPKSVGGVEPEIAEQLKTLMEASERNTSGYTGIQIASKTGTAEHGDENTPPHTWYVAFNNDIAVAVLVKDGGGFGTSATGGQVAAPIGRAVLQAAGGF | not soluble
5 | MLELDTRQIRMGQRAADKAEALRLLGAALVADGLAAPGYAEGLKAREAQGSTYLGQGIAIPHGTPDTRELVFSTGVRLLQFPEGVDWGDGQQVYLAIGIAAKSDEHLQLLQLLTRALGEADLGPALSAAASAEEVLGLLQGAPQELALDAQLVGLGQNAEDLDELAWLGARLLKKAGCVENGFAAVLQQTEPLPLGDGLCWLHSEQLVKRPGLAFVTPAQPLQHQGQLVTGLFCLASLGEAHQALLERLCDLLLEGRGAELVRATSSRSVLAALGGELPPDWPSARAVLANPHGLHARPAQALAQLAKGFAGEIRVRLADSEAAPVSAKSLSKLLALGARRGQTLEFSAEPAIAEDALPALLAAVREGLGEEVEALAEEALPDAVGEAEEDARPAPLRAGERLQAIAASPGIASGPAHVQVAQRFEFQPRGESPAHERERLLRAKRAVDEEIVGLVERSTVKAIREIFVTHREMLDDPELAEQVQLRLNRGESAEAAWSRVVEDSAAQQEALHDALLAERAADLRDLGRRVLARLCGVEAPREPEQPYILVMDEVGPSDVARLDAQRVAGILTARGGATSHSAIIARALGIPALVGAGAAVLGLEPGTALLLDGEHGWLQVAPSTEQLQQAAAERDARQQRQARADAQRLEPARTRDGHAVEVCANLGDTAGAARAVELGAEGVGLLRTEFVFMNNARAPDLATQEAEYRRVLDALDGRPLVARTLDVGGDKPLPYWPIPHEENPYLGLRGIRLTLQRPQILETQLRALFRAAGERPLRVMFPMVGSLDEWRQARDLALRLREEIPLADLQLGIMVEVPSAALLAPVLAREVDFFSVGTNDLTQYTLAIDRGHPSLSAQADGLHPAVLQLIDMTVRAAHAEGKWVGVCGELAADPLALPLLVGLGVDELSVSARSIALVKAGVRELQLVAARGLARKALGLASAAEVRA | not soluble
6 | MIAVVIPAHNEARRLGRCLRAVLVAARQAQQAGLHVEVLVVLDRCSDGSAAVARRFGVHTLEVDAGNVGMARRVGAAHMVERGATWLACTDADSRVPAHWLLSQLACSAEVVCGTVHVEYWQPWQTAALRKLYQSRYQACEGHRHVHGANLGVCADAYERVGGFQPLAAHEDVQLVSDLQASGAQIVWTARHSVATSSRRDSRAREGFGDYLAGLQAQSLEHHHHHH | not soluble
7 | MNVTIYDVAREASVSMATVSRVVNGNPNVKPSTRKKVLETIERLGYRPNAVARGLASKKTTTVGVIIPDISNIFYAELARGIEDIASMYKYNIILSNSDQNQDKQLHLLNNMLGKQVDGIIFMSGNVTEEHVEELKKSPVPVVLAASIESTNQIPSVTIDYEQAAFDAVQSLIDSGHKNIAFVSGTLEEPINHAKKVKGYKRALTESGLPVRDSYIVEGDYTYDSGIEAVEKLLEEDEKPTAIFVGTDEMALGVIHGAQDRGLNVPNDLEIIGFDNTRLSTMVRPQLTSVVQPMYDIGAVAMRLLTKYMNKETVDSSIVELPHRIEFRQSTK | soluble
8 | MSSDKNGDILRPLSDSEVDELLDLYKVKFGIRNFHYLLLYNQRKWDRQLSEAQIPRNDLNHISLRKQFYTHRRGNFRTWGTYVSLHRDIVQSVSFFSWQPDGAAELWECLEQTQLIEWTQGALLTNVDLGFCNRVKELAVSRGVTAIQPRQCFGMVLSHEDAFCAKVPDLPSEFEIRRLRAEDAAMVHDSWPNKGEGSLTYLQALVRFNKSLGICRSDTGELIAWIFQNDFSGLGMLQVLPKAERRGLGGLLAAAMSREIARGEEITLTAWIVATNWRSEALLKRIGYQKDLVNEWIKLVPNSSLEHHHHHH | soluble
9 | MKNIATGGVLERIRRLAPPHVTAPFRTVAEWREWQLAEGQKRCEEINRQNRQLRVEKILNRSGIQPLHRKCSFANYQVQNDGQRYALSQAKSIADELVTGCTNFAFSGKPGTGKNHLAAAIGNRLLKDGQTVIVVTVADVMSALHASYDDGQSGEKFLRELCEVDLLVLDEIGIQRETKNEQVVLHQIVDRRTASMRSVGMLTNLNYEAMKTLLGERIMDRMTMNGGRWVNFNWESWRPNVGQPGIEK | soluble
10 | MKNLSLFTDFYEISMMNAYFTKGINPKAKFEVFFRKTPFKNGYIVLAGMHTLINELKNIRFGENELKYLKSFNILDKQFLNFLREFKLNVKISSIEEGRIVFPQAPVVVIEGHLIELLLIEGLVLNIINFESLIATKTARIKESGAKILAELGLRRAQGINGALSASKAAYIGGADFTSNMLAGYKYNIPVTGTMAHSWIMSFETEEQAFREYAKTYPNKVSLLIDTYDTLNSGLKNAIKIFKELKHEEKNNFSIRIDSGDLEYLSKAARKELNRNGLNHVKIIASNELDENIIMYLNSINAPIDIWGVGTNLVTAKGDPSLSGVYKMISIEKNGKFIPKIKISNNAEKSTLPDQKEVARIYLNDQMILDFIFLKEEKDKIKDHLNSRKEFTVFHPIQDNIFKIIKQYDDFEFLTHTVLENGKLRKGYESSLTNIRNKTKLDLSKLEHTYKRIINPHIYKVSISKNLRKLKNKLTKDIKNN | not soluble
11 | GGNANMFMNLSREAQSETRRHHYLSSSQKEAKDFAMFADTSNPTLVRTIGVRNNLSLITDPRTGGTALMTDQSIPRKFVLGSKSSAPGENAKVFRDEMRAAGHNVSTKQAGELLREVQSDSDDDNFPDPDDFIMSRFTG | not soluble
12 | MGSDKIHHHHHHMAKYRIMTFDGGGTLGALSLQLLNRLARQNPKLISRTHVFSGNSIGSFTALALASGRSPRETLQYFEDEILPAFSISRPGGPVFNQQLPYSGFIKAVRNFFPADLQLIDLRKRIVVPSFKLYSQKLDRWTPVLFHNFPGSPYLNEKVSDVILRSSGAPATQRAYQNYVDGYVVATNPSTASIAFAVGKANVPLDQIAVLSIGTGEAPTRLRRDTRGWGMVSADNIRPENLKNLPPNWGVLLDRSPNEPLLPFLQMIAGGNGYYESMVSANLLGDRFFRLDPRIPNFSKTDPAVVPAVIEIANKTNLQPANQFIEKNWGSK | not soluble
